Data reported in patent US20210238276A1 (INTEGRAL MOLECULAR, published 2021).

Legend:
Assay in all cases: flow cytometry, alanine-scan library in HEK-293T, with cytochalasin B
hsGLUT4 L155A = molecular target: T1, hsGLUT4 L155A (human, UniProt P14672 1-509)
T1 sequence: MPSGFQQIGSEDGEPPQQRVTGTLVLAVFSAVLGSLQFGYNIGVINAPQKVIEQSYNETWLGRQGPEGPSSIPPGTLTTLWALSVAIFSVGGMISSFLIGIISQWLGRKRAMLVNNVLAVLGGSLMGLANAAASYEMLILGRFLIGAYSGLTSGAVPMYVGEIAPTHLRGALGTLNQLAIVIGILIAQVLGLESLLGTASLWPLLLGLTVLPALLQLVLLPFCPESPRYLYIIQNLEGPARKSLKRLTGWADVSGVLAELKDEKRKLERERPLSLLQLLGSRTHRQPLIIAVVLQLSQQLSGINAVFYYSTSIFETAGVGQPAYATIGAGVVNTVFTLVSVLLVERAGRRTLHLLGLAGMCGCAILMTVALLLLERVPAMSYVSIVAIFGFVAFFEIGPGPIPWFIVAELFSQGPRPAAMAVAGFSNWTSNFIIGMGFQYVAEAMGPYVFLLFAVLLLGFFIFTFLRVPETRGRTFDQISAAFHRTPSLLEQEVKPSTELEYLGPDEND
Outline: (§1)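 HEK-293T cells expressing individual GLUT4 alanine mutants were stained 48 h post-transfection with anti-GLUT4 scFv MAbs (2 μg/ml), then biotinylated secondary and streptavidin-PerCP, and read by high-throughput flow cytometry. Where used, cytochalasin B (10 uM final) was given for 30 min before and during primary antibody staining.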

hsGLUT4 R265A = molecular target: T2, hsGLUT4 R265A (human, UniProt P14672 1-509)
T2 sequence: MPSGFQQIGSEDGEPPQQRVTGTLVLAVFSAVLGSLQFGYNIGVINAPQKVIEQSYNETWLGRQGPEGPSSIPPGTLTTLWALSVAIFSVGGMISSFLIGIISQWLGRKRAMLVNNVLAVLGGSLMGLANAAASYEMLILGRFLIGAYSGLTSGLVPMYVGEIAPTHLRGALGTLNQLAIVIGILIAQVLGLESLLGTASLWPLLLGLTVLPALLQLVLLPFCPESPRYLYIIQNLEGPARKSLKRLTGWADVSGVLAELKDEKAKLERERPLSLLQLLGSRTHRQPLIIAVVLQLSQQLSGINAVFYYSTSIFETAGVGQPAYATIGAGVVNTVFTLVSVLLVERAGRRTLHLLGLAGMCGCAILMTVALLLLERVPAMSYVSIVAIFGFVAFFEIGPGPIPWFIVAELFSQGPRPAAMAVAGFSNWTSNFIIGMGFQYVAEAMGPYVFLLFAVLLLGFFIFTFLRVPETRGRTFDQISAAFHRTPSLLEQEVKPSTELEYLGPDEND
Outline: as §1

hsGLUT4 Q295A = molecular target: T3, hsGLUT4 Q295A (human, UniProt P14672 1-509)
T3 sequence: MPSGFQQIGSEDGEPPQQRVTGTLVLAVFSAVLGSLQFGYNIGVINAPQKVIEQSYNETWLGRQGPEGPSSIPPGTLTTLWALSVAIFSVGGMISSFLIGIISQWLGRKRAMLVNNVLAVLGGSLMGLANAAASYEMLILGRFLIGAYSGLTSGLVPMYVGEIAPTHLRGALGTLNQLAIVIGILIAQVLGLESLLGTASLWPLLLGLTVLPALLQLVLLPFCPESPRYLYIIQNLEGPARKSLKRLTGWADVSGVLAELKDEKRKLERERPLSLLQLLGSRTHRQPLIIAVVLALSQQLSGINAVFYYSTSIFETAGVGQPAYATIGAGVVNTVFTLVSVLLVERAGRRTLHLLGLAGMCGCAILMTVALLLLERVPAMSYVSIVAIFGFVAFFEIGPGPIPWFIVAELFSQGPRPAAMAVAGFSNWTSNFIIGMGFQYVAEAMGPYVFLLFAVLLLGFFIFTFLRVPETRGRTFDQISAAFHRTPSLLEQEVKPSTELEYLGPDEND
Outline: as §1

hsGLUT4 F405A = molecular target: T4, hsGLUT4 F405A (human, UniProt P14672 1-509)
T4 sequence: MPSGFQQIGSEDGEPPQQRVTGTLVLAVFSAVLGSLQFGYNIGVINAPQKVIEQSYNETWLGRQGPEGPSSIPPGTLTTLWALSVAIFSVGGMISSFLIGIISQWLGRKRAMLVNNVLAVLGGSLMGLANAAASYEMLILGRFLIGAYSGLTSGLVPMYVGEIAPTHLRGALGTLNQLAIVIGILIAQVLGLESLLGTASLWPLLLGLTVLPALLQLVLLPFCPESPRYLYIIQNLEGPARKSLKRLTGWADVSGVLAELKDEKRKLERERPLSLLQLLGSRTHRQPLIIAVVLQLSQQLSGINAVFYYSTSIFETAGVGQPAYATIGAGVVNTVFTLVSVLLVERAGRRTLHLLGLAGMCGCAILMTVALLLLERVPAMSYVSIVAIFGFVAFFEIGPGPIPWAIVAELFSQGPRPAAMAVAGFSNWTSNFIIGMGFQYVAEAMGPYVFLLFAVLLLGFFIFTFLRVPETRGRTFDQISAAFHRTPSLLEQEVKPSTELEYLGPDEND
Outline: as §1

% of binding to wild type GLUT4 (hsGLUT4 L155A): 26%
% of binding to wild type GLUT4 (hsGLUT4 R265A): -5%
% of binding to wild type GLUT4 (hsGLUT4 Q295A): 89%
% of binding to wild type GLUT4 (hsGLUT4 F405A): 105%
B1: AB102 (Fc fusion)
scFv: ALTQPSSVSANLGGTVKITCSGGGSYGYGWYQQKSPGSAPVTVIYSNDQRPSDIPSRFSGSKSGSTATLTITGVRAEDEAIYYCGSTDSDYVGIFGAGTTLTVLGQSSRSSGGGGSSGGGGSAVTLDESGGGLQTPGGTLSLVCKASGFDFSSYATIWVRQAPGKGLEWVAGISGTGTGSSTGYAPAVKGRATISRDNGQSTVRLQLNNLRAEDTGSYFCAKSTGYGDSWIYPDSIDAWGHGTEVIVSS
notes: also called MAb AB102; not shown: Fc fragment of human IgG1, cloned in frame with the scFv
